In patent US20140287419A1, “Compositions Having Dicamba Decarboxylase Activity and Methods of Use” (priority 2013, published 2014):

Assays:
[1] = Detection of 2,5-DCP product by GC/MS; type: biochemical; settings: purified protein
Procedure: The decarboxylated and demethylated product of dicamba, 2,5-dichloro phenol or 2,5-DCP (FIG. 1E) is measured using a GC/MS analytical procedure with either liquid injection after liquid/liquid extraction using toluene as the extraction solvent or gas injection using head space method. The head space sample analysis is carried out on an Agilent GC/MS system with a 6890A GC, a 5973N MSD and a CTC CombiPAL auto-sampler or with a 7890A GC, a 5975C MSD and an Agilent GC Sampler 80 auto-sampler with Phenomenex ZB-MultiResidue-1 column (30 m length, 0.25 mm diameter, 0.25 um film) or equivalent. GC/MS parameters are: GC inlet temperature, 200° C.; Carry gas, helium in constant flow mode (1.2 mL/min); Oven temperature program, 70° C. for 1 min and then ramp to 275° C. at 40° C./min. […] The reaction vial is transferred to a agitator for incubation at 90° C. for 4 min at 500 rpm. With a syringe preheated at 110° C., 1000 uL of head space is injected with sample fill speed at 100 uL/sec. A 2-mm diameter liner is used in sample inlet. The MS data acquisition is done in SIM (selected ion monitoring) mode. The positive ion at M/Z 162 for the molecular ion of 2,-5-DCP is monitored at retention time of 4.06 min. Solvent delay for MS acquisition is set at 3 min. GC/MS parameters for liquid sample analysis are the same as those for head space analysis, except that the volume of liquid injection is 1 uL.

[2] = Detection of 2,5-DCA product by toluene capture or head-space GC/MS; type: biochemical; settings: purified protein, toluene capturing
Procedure: Alternatively, dicamba decarboxylase activity can be monitored by measuring decarboxylation products other than CO2 using product detection methods. The decarboxylation product of dicamba, 2,5-dichloro anisole or 2,5-DCA (FIG. 1C), is a volatile compound with a flash point of 21° C. To capture this volatile compound for detection, 140 ul of toluene solution is added on top of 1 ml reaction mixture to form a trapping layer in a 1.5 ml eppendorf tube. […] The reaction is kept still at room temperature overnight before being vortex mixed and centrifuged at 14,000 rpm for 15 minutes. The top toluene phase is carefully removed using a micropipette and transferred into a 12×32 mm polypropylene vial (Vial 11 mm) from MicroLiter Analytical Supplies, Inc. (catalog number 11-5300-100). The vial is sealed with Crimp seal (11 mm with FEP/Nat Rubber) from MicroLiter Analytical Supplies, Inc. (catalog number 11-0020A) using a E-Z Crimper™ 11 mm from Wheaton Inc. 1 ul of the toluene mixture is taken from the sealed vials and injected in splitless mode into a GC/MS system for sample analysis (Agilent GC/MS system with a 6890A GC, a 5973N MSD and a CTC CombiPAL auto-sampler or with a 7890A GC, a 5975C MSD and an Agilent GC Sampler 80 auto-sampler). The GC parameters are: Agilent DB-5MS column (30 m length, 0.25 mm diameter, 0.25 um film) or equivalent; The GC inlet temperature, 250° C.; Carry gas, helium in constant flow mode (1.2 mL/min); The GC oven temperature program, initial temperature at 70° C. for 1 min, ramping to 200° C. at 15° C./min, and then ramping to 250° C. at 30° C./min. MS data acquisition is done in SIM (selected ion monitoring) mode, monitoring the positive ion at M/Z 176 for the molecular ion of […]. The solvent delay for MS acquisition is set at 4 min. Another method for detection of 2,5-DCA is a head-space GC/MS method. Briefly, reaction mixtures in 500 ul reaction volume are prepared in 1.5 ml×32 mm glass vials (Microliter Analytical Supplies, Cat#11-1200) for head space analysis. Glass vials are sealed with magnetic cap from MicroLiter Analytical Supplies, Inc. (catalog number 11-0030AT) using a E-Z Crimper™ 11 mm from Wheaton Industries Inc. The reaction is carried out at room temperature for various amount of time and stopped by heating at 95° C. for 5 min. The reaction vial is transferred to a agitator for incubation at 80° C. for 5 min at 500 rpm. With a syringe preheated at 80° C., 1000 uL of head space is injected with sample fill speed at 100 uL/sec. GC/MS parameters for headspace analysis are the same as for liquid sample analysis.

[3] = Detection of 4-chloro-3-methoxy phenol product by LC-MS/MS; type: biochemical; settings: purified protein
Procedure: The decarboxylated and chloro hydrolyzed product, 4-chloro-3-methoxy phenol (FIG. 1D), is measured using a LC-MS/MS analytical procedure. […] 10 ul is removed from the reaction mixture and mixed with 90 ul pre-chilled methanol followed by centrifugation at 14,000 rpm for 15 min at 4° C. 10 ul of the supernatant is then transferred into 170 ul ddH2O to achieve 5% methanol solution for injection. 50 ul of the prepared sample is injected into a 4000 Q Trap LC-MS/MS system for sample analysis. LC-MS/MS parameters are: Mobile Phase A, 2 mM ammonium acetate in water; Mobile Phase B, 2 mM ammonium acetate in methanol; Column, Aquasil, 100×2.1 mm, 3 μm, C18 column; Flow Rate, 0.6 ml/min. The MS/MS fragment 157/142 which is common to 4-chloro-3-methoxy phenol, 2-chloro-5-methoxy phenol, and 3-chloro-5-methoxy phenol is monitored at a retention time of 2.88 min.

[4] = 14C assay with purified protein (14CO2 captured on Ca(OH)2 filter paper); type: biochemical; settings: [14C]-carboxyl-labeled dicamba
[5] = Dicamba decarboxylation activity of computationally designed protein variants; settings: native protein or designed variant versus parent

| Molecule | 2,5-DCP product [1] | 2,5-DCA product [2] | 4-chloro-3-methoxy phenol product [3] | CO2 product [4] | Dicamba Decarboxylase Activity [5] |
| --- | --- | --- | --- | --- | --- |
| SEQ ID NO:118: Design variant of SEQ ID NO: 95 (protein, Dicamba decarboxylase variant clone DC.5.033) MAKKPRIDMHSHFFPRISEQEAAKFDANHAPWLQVSAKGDTGSIMMGKNNFQPVYQALWDPAFRIEEMDAQGVDVQVTCATPVMFGYTWEANKAAQWAERMNDFALEFAAHNPQRIKVLAQVPLQDLDLACKEASRAVAAGHLGIQIGNHLGDKDLDDATLEAFLTHCANEDIPILVHGTDMMGGQRMKKWGLPWLVALAAEVQLAILSLILSGAFERIPKSLKICFSHGGGSFAFLLGLVDEAWRHVDIVREDCPRPPSEYVDRFFVDSVGNPGALELLVSVMGEDRVMLGSDYPHTTGEQKIGGLVLSSNLGESAKDKIISGNASKFFNINV | not detected | detected | not detected | not detected | have dicamba decarboxylase activity |
| SEQ ID NO:119: Design variant of SEQ ID NO: 95 (protein, Dicamba decarboxylase variant cloneDC.5.034) MAKKPRIDMHSHFFPRISEQEAAKFDANHAPWLQVSAKGDTGSIMMGKNNFQPVYQALWDPAFRIEEMDAQGVDVQVTCATPVMFGYTWEANKAAQWAERMNDFALEFAAHNPQRIKVLAQVPLQDLDLACKEASRAVAAGHLGIQIGNHLGDKDLDDATLEAFLTHCANEDIPILVHGWDMMGGQRMKKWGLYWLVAHHAEVQLAILSLILSGAFERIPKSLKICFSHGGGSFAFTLGWVDEAWRHVDIVREDCPRPPSEYVDRFFVDSVGNPGALELLVSVMGEDRVMLGSDYPLTTGEQKIGGLVLSSNLGESAKDKIISGNASKFFNINV | not detected | detected | not detected | not detected | have dicamba decarboxylase activity |
| SEQ ID NO:117: Design variant of SEQ ID NO: 95 (protein, Dicamba decarboxylase variant clone DC.5.008) MAKKPRIDMHSHFFPRISEQEAAKFDANHAPWLQVSAKGDTGSIMMGKNNFRPVYQALWDPAFRIEEMDAQGVDVQVTCATPVMFGYTWEANKAAQWAERMNDFALEFAAHNPQRIKVLAQVPLQDLDLACKEASRAVAAGHLGIQIGNHLGDKDLDDATLEAFLTHCANEDIPILVHPWDMMGGQRMKKWMLPVLVAAPAEVQLAILSLILSGAFERIPKSLKICFAGGGGSFAFLLGIVDLAWRHRDIVREDCPRPPSEYVDRFFVDSLVFNPGALELLVSVMGEDRVMLGSDYPFPTGEQKIGGLVLSSNLGESAKDKIISGNASKFFNINV | not detected | detected | not detected | not detected | have dicamba decarboxylase activity |
| SEQ ID NO:120: Design variant of SEQ ID NO: 100 (protein, Dicamba decarboxylase variant clone DC.12.002) MAIIDCHGHYTTTPKGVETYRNAQKAAVAKDPSFKYEKGQVVVSDDEIRESIENNQLKMQRERGTDLTIFSPRSTAGGHHIGNEYTSQFWTEHQNDLIRRVCDLFPKNFAPVAQLPQSPGVDPAKSVPEIVRTVEQMGFIGINLNPDPSGGYWKDTSLADRAFYPIYEKMVEYDIPAMIHPRNACNDCFHTTGSHALGADTTGFQQLIMSDVFKDFPSLKIIIPHGGGAVPYHWGRFRGLMQDQGYAPLEESALKNIYFDTCVYHQRGIDLLLDIVPTQNILFASEMIGAVRGIDAETGHNFDDTKRYIDNNTALNAEEKAMIFEGNARRVFSRLKTD | not detected | detected | not detected | not detected | have dicamba decarboxylase activity |
| SEQ ID NO:122: Design variant of SEQ ID NO: 100 (protein, Dicamba decarboxylase variant clone DC.12.103) MAIIDCHGHYTTTPKGVEDYRNAQKAAVAKDPSFKGEKGQVVVSDDEIRESIENNQLKMQRERGTDLTIFSPRSTAGGHHIGNEYTSQFWTEHQNDLIRRVCDLFPKNFAPVAQLPQSPGVDPAKSVPEIVRTVEQMGFIGINLNPDPSGGYWKDTSLADRAFYPIYEKMVEYDIPAMIHPRNACNDCFHTTGSHALGADTTGFQQLIMSDVFKDFPSLKIIIPHGGGAVPYHWGRFRGLMQDQGYAPLEESALKNIYFDTCVYHQRGIDLLLDIVPTQNILFASDMIGAVRGIDPETGHNFDDTKRYIDNNTALNAEEKAMIFEGNARRVFSRLKTD | not detected | detected | not detected | not detected | have dicamba decarboxylase activity |
| SEQ ID NO:121: Design variant of SEQ ID NO: 100 (protein, Dicamba decarboxylase variant clone DC.12.014) MAIIDCHGHYTTTPKGVEDYRNAQKAAVAKDPSFKGEKGQVVVSDDEIRESIENNQLKMQRERGTDLTIFSPRWDAGGHHIGNEYTSQFWTEHQNDLIRRVCDLFPKNFAPVAQLPQSPGVDPAKSVPEIVRTVEQMGFIGINLNPDPSGGYWKDTSLADRAFYPIYEKMVEYDIPAMIHPRLACNACFHTGLSVGLGADTTGFQQLIMSDVFKDFPSLKIIIPHGGGAVPYHWGRFRGLMQDQGYAPLEESALKNIYFDTCVYHQRGIDLLLDIVPTQNILFASEMIGAVRGIDPETGHNFDDTKRYIDNNTALNAEEKAMIFEGNARRVFSRLKTD | not detected | detected | not detected | not detected | have dicamba decarboxylase activity |
